The source of these data is patent US20220372155A1 (LYVGEN BIOPHARMA, published 2022).

This assay concerns the target T1, human CD40 expressed on CHO cells (human, UniProt P25942 21-277).
T1 construct: whole, on cells; also used for the reporter cells over-expressing human CD40; also called cellular CD40; CHO-CD40 cells
As to the kind of experiment: FACS, CHO cells.

T1 sequence (P25942 21-277): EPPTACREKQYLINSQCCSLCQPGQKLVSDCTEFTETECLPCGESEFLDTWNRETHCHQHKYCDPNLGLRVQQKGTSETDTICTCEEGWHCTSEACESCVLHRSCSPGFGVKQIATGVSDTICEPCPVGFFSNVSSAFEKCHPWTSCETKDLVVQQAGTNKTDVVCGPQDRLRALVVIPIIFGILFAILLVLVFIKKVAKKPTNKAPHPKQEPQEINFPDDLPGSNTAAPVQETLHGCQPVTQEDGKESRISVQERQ

B1: Ly423 (bispecific antibody, human IgG1, kappa)
heavy: EVQLVESGGGLVQPGGSLRLSCAASGFNIKDTYMHWVRQAPGKGLEWVARIDPANGNSKYADSVKGRFTISADTSKNTAYLQMNSLRAEDTAVYYCAPFGYYVSDYAMAYWGQGTLVTVSSASTKGPSVFPLAPSSKSTSGGTAALGCLVKDYFPEPVTVSWNSGALTSGVHTFPAVLQSSGLYSLSSVVTVPSSSLGTQTYICNVNHKPSNTKVDKKVEPKSCDKTHTCPPCPAPELLGPSVFLFPPKPKDTLMISRTPEVTCVVVDVSHEDPEVKFNWYVDGVEVHNAKTKPREEQYNSTYRVVSVLTVLHQDWLNGKEYKCKVSNKALPAPIEKTISKAKGQPREPQVYTLPPSREEMTKNQVSLTCLVKGFYPSDIAVEWESNGQPENNYKTTPPVLDSDGSFFLYSKLTVDKSRWQQGNVFSCSVMHEALHNHYTQKSLSLSPGK
light: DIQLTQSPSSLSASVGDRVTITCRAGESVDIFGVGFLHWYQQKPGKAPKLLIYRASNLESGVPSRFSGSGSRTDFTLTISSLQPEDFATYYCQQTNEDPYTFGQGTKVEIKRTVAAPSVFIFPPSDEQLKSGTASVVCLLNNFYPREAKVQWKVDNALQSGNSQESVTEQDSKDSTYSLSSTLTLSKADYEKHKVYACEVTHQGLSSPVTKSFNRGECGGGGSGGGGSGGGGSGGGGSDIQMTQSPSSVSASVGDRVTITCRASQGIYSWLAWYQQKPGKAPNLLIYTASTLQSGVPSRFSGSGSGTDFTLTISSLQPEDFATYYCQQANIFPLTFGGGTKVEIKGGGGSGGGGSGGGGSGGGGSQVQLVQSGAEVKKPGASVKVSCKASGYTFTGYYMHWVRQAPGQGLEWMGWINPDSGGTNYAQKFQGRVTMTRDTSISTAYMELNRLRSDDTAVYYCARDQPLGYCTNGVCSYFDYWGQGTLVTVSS
notes: Ly312 HC (IgG1 mutated Fc) + Ly312 LC-Ly253 scFv VL-VH
Consider B1, for which the binding result is given as “binds”.

B2: Ly424 (bispecific antibody, human IgG1, kappa)
heavy: EVQLVESGGGLVQPGGSLRLSCAASGFNIKDTYMHWVRQAPGKGLEWVARIDPANGNSKYADSVKGRFTISADTSKNTAYLQMNSLRAEDTAVYYCAPFGYYVSDYAMAYWGQGTLVTVSSASTKGPSVFPLAPSSKSTSGGTAALGCLVKDYFPEPVTVSWNSGALTSGVHTFPAVLQSSGLYSLSSVVTVPSSSLGTQTYICNVNHKPSNTKVDKKVEPKSCDKTHTCPPCPAPELLGPSVFLFPPKPKDTLMISRTPEVTCVVVDVSHEDPEVKFNWYVDGVEVHNAKTKPREEQYNSTYRVVSVLTVLHQDWLNGKEYKCKVSNKALPAPIEKTISKAKGQPREPQVYTLPPSREEMTKNQVSLTCLVKGFYPSDIAVEWESNGQPENNYKTTPPVLDSDGSFFLYSKLTVDKSRWQQGNVFSCSVMHEALHNHYTQKSLSLSPGK
light: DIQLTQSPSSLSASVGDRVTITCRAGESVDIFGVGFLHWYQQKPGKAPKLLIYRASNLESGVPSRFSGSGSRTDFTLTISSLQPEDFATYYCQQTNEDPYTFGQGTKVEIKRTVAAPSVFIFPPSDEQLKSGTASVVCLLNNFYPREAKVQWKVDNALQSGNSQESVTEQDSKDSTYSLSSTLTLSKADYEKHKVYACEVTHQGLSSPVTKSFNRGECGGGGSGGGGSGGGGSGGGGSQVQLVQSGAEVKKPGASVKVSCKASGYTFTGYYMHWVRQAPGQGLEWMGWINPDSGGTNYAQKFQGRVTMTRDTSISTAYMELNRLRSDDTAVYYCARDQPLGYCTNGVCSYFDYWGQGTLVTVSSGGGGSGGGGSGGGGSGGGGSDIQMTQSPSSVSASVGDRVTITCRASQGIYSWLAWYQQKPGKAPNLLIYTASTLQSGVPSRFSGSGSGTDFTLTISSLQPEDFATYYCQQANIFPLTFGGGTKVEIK
notes: Ly312 HC (IgG1 mutated Fc) + Ly312 LC-Ly253 scFv VH-VL
Consider B2, for which the binding result is “binds”.

B3: Ly420 (bispecific antibody, human IgG1, kappa)
heavy: EVQLVESGGGVVQPGRSLRLSCSASGFDFTTYWMSWVRQAPGKGLEWIGEIHPDSSTINYAPSLKDRFTISRDNAKNTLFLQMDSLRPEDTGVYFCASLYFGFPWFAYWGQGTPVTVSSASTKGPSVFPLAPSSKSTSGGTAALGCLVKDYFPEPVTVSWNSGALTSGVHTFPAVLQSSGLYSLSSVVTVPSSSLGTQTYICNVNHKPSNTKVDKKVEPKSCDKTHTCPPCPAPELLGPSVFLFPPKPKDTLMISRTPEVTCVVVDVSHEDPEVKFNWYVDGVEVHNAKTKPREEQYNSTYRVVSVLTVLHQDWLNGKEYKCKVSNKALPAPIEKTISKAKGQPREPQVYTLPPSREEMTKNQVSLTCLVKGFYPSDIAVEWESNGQPENNYKTTPPVLDSDGSFFLYSKLTVDKSRWQQGNVFSCSVMHEALHNHYTQKSLSLSPGK
light: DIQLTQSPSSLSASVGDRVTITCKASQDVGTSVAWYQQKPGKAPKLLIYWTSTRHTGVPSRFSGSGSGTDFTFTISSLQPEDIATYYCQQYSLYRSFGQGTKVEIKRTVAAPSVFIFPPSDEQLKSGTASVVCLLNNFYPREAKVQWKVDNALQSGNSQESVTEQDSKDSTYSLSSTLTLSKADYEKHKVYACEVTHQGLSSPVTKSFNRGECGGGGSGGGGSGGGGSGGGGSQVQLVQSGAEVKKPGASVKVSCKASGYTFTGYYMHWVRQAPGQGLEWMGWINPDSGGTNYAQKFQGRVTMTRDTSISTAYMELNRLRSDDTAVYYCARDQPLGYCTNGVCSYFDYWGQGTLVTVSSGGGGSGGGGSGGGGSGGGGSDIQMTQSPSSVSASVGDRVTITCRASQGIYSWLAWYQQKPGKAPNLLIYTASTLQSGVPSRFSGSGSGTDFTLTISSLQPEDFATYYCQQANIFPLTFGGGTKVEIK
notes: Ly311 HC (IgG1 mutated Fc) + Ly311 LC-Ly253 scFv VH-VL
As for B3, the binding result is given as “binds”.

B4: Ly421 (bispecific antibody, human IgG1, kappa)
heavy: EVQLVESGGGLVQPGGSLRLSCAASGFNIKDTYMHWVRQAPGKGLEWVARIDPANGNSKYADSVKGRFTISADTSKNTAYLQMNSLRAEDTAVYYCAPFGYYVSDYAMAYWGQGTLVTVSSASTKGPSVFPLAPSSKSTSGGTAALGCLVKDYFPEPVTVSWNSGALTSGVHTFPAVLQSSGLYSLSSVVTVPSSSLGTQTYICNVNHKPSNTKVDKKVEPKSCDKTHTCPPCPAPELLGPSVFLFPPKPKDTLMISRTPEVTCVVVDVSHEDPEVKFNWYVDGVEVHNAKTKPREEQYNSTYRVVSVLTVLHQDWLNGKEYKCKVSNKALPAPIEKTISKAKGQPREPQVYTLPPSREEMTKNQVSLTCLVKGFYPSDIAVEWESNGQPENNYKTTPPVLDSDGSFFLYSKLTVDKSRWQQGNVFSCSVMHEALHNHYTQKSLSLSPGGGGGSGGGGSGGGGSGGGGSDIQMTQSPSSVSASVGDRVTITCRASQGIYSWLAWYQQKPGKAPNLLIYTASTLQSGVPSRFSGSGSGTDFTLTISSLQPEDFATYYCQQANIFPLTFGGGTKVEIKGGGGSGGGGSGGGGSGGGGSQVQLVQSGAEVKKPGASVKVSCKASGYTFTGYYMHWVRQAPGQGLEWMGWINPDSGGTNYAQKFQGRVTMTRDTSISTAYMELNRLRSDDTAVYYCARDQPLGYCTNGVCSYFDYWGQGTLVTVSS
light: DIQLTQSPSSLSASVGDRVTITCRAGESVDIFGVGFLHWYQQKPGKAPKLLIYRASNLESGVPSRFSGSGSRTDFTLTISSLQPEDFATYYCQQTNEDPYTFGQGTKVEIKRTVAAPSVFIFPPSDEQLKSGTASVVCLLNNFYPREAKVQWKVDNALQSGNSQESVTEQDSKDSTYSLSSTLTLSKADYEKHKVYACEVTHQGLSSPVTKSFNRGEC
notes: Ly312 HC (IgG1 mutated Fc)-Ly253 scFv VL-VH + Ly312 LC
Consider B4, for which the binding result is reported as “binds”.

B5: Ly422 (bispecific antibody, human IgG1, kappa)
heavy: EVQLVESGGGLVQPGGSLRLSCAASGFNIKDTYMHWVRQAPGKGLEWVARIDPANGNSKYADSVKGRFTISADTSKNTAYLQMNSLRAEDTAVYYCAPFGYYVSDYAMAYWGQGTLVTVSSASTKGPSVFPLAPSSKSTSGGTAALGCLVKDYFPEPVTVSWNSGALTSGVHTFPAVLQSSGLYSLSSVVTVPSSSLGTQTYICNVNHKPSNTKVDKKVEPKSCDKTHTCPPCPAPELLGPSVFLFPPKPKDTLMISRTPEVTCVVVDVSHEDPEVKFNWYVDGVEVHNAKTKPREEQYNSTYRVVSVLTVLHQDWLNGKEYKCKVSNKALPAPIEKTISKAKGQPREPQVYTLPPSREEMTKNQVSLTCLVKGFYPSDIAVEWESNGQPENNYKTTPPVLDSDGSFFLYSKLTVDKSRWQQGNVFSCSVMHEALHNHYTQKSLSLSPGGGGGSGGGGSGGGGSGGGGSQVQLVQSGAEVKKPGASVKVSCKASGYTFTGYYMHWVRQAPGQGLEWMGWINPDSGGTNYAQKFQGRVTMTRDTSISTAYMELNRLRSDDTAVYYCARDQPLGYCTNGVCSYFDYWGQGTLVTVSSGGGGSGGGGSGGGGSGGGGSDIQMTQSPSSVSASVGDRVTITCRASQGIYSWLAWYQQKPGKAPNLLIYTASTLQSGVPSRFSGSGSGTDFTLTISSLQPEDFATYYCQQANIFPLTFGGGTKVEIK
light: DIQLTQSPSSLSASVGDRVTITCRAGESVDIFGVGFLHWYQQKPGKAPKLLIYRASNLESGVPSRFSGSGSRTDFTLTISSLQPEDFATYYCQQTNEDPYTFGQGTKVEIKRTVAAPSVFIFPPSDEQLKSGTASVVCLLNNFYPREAKVQWKVDNALQSGNSQESVTEQDSKDSTYSLSSTLTLSKADYEKHKVYACEVTHQGLSSPVTKSFNRGEC
notes: Ly312 HC (IgG1 mutated Fc)-Ly253 scFv VH-VL + Ly312 LC
B5: the binding result was “binds”.

B6: Ly462 (bispecific antibody, human IgG1, kappa)
heavy: QVQLKESGPGLVAPSQSLSITCTVSGFSLTDYGVRWIRQPPGKGLEWLGVIWGGGSTYYNSALKSRLSISKDNSKSQVFLKMNSLQTDDTAMYYCAKEKRRGYYYAMDYWGQGTSVTVSSASTKGPSVFPLAPSSKSTSGGTAALGCLVKDYFPEPVTVSWNSGALTSGVHTFPAVLQSSGLYSLSSVVTVPSSSLGTQTYICNVNHKPSNTKVDKKVEPKSCDKTHTCPPCPAPELLGPSVFLFPPKPKDTLMISRTPEVTCVVVDVSHEDPEVKFNWYVDGVEVHNAKTKPREEQYNSTYRVVSVLTVLHQDWLNGKEYKCKVSNKALPAPIEKTISKAKGQPREPQVYTLPPSREEMTKNQVSLTCLVKGFYPSDIAVEWESNGQPENNYKTTPPVLDSDGSFFLYSKLTVDKSRWQQGNVFSCSVMHEALHNHYTQKSLSLSPGGGGGSGGGGSGGGGSGGGGSDIQMTQSPSSLSASVGDRVTITCKASQNIYIYLNWYQQKPGKAPKLLIYNTNNLQTGVPSRFSGSGSGTDFTLTISSLQPEDFATYYCLQHSSRRTFGGGTKVEIKGGGGSGGGGSGGGGSGGGGSQVQLVESGGGLVQPGGSLKLSCATSGFNFNDYFMNWVRQASGKGLEWVGQIRNKNYNYATYYTESLEGRVTISRDDSKNTAYLQMNSLKTEDTAVYYCTSYYYDGFADYFDYWGQGTTVTVSS
light: ENVLTQSPAIMSASPGEKVTMTCRASSSVSSSYLHWYQQKSGASPKLWIYSTSNLASGVPARFSGSGSGTSYSLTISSVEAEDAATYYCQQYSGYPLTFGGGTKLEIKRTVAAPSVFIFPPSDEQLKSGTASVVCLLNNFYPREAKVQWKVDNALQSGNSQESVTEQDSKDSTYSLSSTLTLSKADYEKHKVYACEVTHQGLSSPVTKSFNRGEC
notes: Ly368 HC-TM740 scFv VL-VH + Ly368 LC
With B6, the binding result is “binds”.

B7: Ly463 (bispecific antibody, human IgG1, kappa)
heavy: QVQLKESGPGLVAPSQSLSITCTVSGFSLTDYGVRWIRQPPGKGLEWLGVIWGGGSTYYNSALKSRLSISKDNSKSQVFLKMNSLQTDDTAMYYCAKEKRRGYYYAMDYWGQGTSVTVSSASTKGPSVFPLAPSSKSTSGGTAALGCLVKDYFPEPVTVSWNSGALTSGVHTFPAVLQSSGLYSLSSVVTVPSSSLGTQTYICNVNHKPSNTKVDKKVEPKSCDKTHTCPPCPAPELLGPSVFLFPPKPKDTLMISRTPEVTCVVVDVSHEDPEVKFNWYVDGVEVHNAKTKPREEQYNSTYRVVSVLTVLHQDWLNGKEYKCKVSNKALPAPIEKTISKAKGQPREPQVYTLPPSREEMTKNQVSLTCLVKGFYPSDIAVEWESNGQPENNYKTTPPVLDSDGSFFLYSKLTVDKSRWQQGNVFSCSVMHEALHNHYTQKSLSLSPGGGGGSGGGGSGGGGSGGGGSQVQLVESGGGLVQPGGSLKLSCATSGFNFNDYFMNWVRQASGKGLEWVGQIRNKNYNYATYYTESLEGRVTISRDDSKNTAYLQMNSLKTEDTAVYYCTSYYYDGFADYFDYWGQGTTVTVSSGGGGSGGGGSGGGGSGGGGSDIQMTQSPSSLSASVGDRVTITCKASQNIYIYLNWYQQKPGKAPKLLIYNTNNLQTGVPSRFSGSGSGTDFTLTISSLQPEDFATYYCLQHSSRRTFGGGTKVEIK
light: ENVLTQSPAIMSASPGEKVTMTCRASSSVSSSYLHWYQQKSGASPKLWIYSTSNLASGVPARFSGSGSGTSYSLTISSVEAEDAATYYCQQYSGYPLTFGGGTKLEIKRTVAAPSVFIFPPSDEQLKSGTASVVCLLNNFYPREAKVQWKVDNALQSGNSQESVTEQDSKDSTYSLSSTLTLSKADYEKHKVYACEVTHQGLSSPVTKSFNRGEC
notes: Ly368 HC-TM740 scFv VH-VL + Ly368 LC
In the case of B7, the binding result is given as “binds”.
